Assay results: the supplement of paper PMC10065799, “High-throughput profiling of sequence recognition by tyrosine kinases and SH2 domains using bacterial peptide display” (eLife, 2023)

How the values were obtained:
c-Src SH2 = experiment: SH2 binding enrichment of the phosphorylated peptide, bacterial display (enrichment ratio); higher = better substrate or ligand; peptides without Tyr show the background
Grb2 SH2 = Grb2 SH2 (UniProt P62993); experiment: as above
SHP2-C SH2 = experiment: as above
FGFR3 = FGFR3 (UniProt P22607); experiment: phosphorylation enrichment, bacterial display (enrichment ratio); higher = better substrate or ligand; peptides without Tyr show the background
EPHB1 = EPHB1 (UniProt P54762); experiment: as above
Fes = Fes (UniProt P07332); experiment: as above
MERTK = MERTK (UniProt Q12866); experiment: as above
FGFR1 = FGFR1 (UniProt P11362); experiment: as above
Fyn = Fyn (UniProt P06241); experiment: as above
Jak2 = Jak2 (UniProt O60674); experiment: as above
Hck = Hck (UniProt P08631); experiment: as above
AncSZ = experiment: as above
EPHB2 = EPHB2 (UniProt P29323); experiment: as above
c-Src = experiment: as above
Fer (mouse) = experiment: as above
c-Abl (mouse) = experiment: as above
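Throughout, for SH2 binding enrichment of the phosphorylated peptide, bacterial display: peptide library displayed on the E. coli surface as eCPX fusions, selected cells deep-sequenced, score is each peptide's frequency after selection divided by its frequency in the input.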
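Throughout, for phosphorylation enrichment, bacterial display: 11-residue human phosphosite peptides and single-mutation variants displayed on the E. coli surface, counted by deep sequencing, each peptide's frequency after selection divided by its frequency in the unselected input library; frequency after pTyr selection over input frequency; kinase dosed for 20-30% of maximal phosphorylation in three min.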

Chain of EPHB1 (P54762 whole entry, looked up): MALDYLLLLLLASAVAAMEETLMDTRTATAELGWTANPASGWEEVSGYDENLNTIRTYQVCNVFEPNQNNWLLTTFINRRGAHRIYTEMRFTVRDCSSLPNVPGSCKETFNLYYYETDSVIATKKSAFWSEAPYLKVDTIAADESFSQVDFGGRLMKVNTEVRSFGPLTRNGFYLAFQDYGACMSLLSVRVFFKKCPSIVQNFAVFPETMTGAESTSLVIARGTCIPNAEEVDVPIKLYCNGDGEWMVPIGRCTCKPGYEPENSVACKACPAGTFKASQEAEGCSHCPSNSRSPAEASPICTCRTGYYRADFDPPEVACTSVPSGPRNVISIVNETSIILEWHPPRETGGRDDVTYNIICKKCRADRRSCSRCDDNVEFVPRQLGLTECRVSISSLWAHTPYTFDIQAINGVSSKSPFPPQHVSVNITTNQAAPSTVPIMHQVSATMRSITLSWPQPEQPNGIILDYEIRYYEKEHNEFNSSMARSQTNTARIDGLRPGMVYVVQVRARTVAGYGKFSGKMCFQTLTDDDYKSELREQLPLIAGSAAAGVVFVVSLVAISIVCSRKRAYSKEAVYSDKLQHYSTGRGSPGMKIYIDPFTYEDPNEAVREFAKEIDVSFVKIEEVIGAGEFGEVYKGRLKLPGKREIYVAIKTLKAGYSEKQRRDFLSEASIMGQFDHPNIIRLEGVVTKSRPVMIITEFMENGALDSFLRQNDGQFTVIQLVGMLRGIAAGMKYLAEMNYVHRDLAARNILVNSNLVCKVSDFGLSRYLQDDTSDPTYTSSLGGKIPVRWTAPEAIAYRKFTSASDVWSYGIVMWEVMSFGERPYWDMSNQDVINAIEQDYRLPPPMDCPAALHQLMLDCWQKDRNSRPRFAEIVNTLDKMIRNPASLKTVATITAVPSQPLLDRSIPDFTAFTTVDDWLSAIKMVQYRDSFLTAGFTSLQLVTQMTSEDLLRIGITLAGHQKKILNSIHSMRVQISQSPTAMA
Chain of EPHB2 (P29323 whole entry, looked up): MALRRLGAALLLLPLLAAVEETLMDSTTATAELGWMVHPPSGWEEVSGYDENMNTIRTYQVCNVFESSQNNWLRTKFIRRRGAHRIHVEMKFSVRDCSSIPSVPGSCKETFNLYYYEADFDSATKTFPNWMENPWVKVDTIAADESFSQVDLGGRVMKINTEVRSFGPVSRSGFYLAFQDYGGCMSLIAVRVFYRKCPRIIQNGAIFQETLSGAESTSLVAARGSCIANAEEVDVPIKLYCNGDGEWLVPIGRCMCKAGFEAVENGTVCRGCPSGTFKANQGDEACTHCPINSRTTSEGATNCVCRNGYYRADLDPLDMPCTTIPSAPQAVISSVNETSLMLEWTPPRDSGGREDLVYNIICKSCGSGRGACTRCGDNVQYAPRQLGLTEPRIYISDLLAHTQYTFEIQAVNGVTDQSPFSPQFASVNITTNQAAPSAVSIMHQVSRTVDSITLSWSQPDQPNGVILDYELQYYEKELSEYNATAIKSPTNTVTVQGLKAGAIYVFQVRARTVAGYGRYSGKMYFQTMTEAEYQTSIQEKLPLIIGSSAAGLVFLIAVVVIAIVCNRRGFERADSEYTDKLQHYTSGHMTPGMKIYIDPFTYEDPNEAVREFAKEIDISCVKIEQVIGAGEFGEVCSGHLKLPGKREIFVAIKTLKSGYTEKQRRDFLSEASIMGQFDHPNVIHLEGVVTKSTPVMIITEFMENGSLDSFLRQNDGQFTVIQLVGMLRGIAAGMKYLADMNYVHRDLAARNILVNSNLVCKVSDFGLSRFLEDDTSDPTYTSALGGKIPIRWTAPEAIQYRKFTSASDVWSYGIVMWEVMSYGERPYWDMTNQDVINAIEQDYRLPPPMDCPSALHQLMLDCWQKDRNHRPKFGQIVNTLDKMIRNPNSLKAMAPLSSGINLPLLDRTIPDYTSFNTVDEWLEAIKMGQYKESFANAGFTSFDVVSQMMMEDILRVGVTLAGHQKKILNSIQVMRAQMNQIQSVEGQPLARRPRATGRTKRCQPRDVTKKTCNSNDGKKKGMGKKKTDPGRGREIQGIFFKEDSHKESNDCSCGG
Chain of MERTK (Q12866 whole entry, looked up): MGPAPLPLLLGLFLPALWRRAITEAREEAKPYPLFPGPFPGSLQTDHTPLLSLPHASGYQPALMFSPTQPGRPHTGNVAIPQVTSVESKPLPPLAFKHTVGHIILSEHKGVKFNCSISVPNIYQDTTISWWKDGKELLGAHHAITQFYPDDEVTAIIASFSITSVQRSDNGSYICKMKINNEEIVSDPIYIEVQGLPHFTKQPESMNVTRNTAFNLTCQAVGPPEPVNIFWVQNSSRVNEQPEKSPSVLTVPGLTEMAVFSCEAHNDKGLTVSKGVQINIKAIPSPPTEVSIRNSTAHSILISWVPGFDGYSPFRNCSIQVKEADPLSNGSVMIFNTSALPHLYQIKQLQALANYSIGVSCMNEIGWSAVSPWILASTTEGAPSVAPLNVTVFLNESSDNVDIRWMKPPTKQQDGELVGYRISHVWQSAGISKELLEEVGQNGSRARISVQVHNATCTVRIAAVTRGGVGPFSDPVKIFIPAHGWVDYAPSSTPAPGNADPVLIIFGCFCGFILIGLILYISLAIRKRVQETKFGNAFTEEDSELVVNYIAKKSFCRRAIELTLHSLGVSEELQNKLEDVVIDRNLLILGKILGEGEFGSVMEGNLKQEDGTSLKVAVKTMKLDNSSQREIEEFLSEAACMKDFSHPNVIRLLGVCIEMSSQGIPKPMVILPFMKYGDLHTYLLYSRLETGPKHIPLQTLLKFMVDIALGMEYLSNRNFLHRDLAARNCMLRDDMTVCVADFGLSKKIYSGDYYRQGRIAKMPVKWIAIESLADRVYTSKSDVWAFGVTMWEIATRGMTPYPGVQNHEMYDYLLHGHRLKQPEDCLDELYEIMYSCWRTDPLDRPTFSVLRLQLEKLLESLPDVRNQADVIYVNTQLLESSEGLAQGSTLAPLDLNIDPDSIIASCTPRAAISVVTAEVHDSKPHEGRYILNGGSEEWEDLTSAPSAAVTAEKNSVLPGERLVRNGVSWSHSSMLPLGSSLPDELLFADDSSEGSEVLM
Chain of Fes (P07332 whole entry, looked up): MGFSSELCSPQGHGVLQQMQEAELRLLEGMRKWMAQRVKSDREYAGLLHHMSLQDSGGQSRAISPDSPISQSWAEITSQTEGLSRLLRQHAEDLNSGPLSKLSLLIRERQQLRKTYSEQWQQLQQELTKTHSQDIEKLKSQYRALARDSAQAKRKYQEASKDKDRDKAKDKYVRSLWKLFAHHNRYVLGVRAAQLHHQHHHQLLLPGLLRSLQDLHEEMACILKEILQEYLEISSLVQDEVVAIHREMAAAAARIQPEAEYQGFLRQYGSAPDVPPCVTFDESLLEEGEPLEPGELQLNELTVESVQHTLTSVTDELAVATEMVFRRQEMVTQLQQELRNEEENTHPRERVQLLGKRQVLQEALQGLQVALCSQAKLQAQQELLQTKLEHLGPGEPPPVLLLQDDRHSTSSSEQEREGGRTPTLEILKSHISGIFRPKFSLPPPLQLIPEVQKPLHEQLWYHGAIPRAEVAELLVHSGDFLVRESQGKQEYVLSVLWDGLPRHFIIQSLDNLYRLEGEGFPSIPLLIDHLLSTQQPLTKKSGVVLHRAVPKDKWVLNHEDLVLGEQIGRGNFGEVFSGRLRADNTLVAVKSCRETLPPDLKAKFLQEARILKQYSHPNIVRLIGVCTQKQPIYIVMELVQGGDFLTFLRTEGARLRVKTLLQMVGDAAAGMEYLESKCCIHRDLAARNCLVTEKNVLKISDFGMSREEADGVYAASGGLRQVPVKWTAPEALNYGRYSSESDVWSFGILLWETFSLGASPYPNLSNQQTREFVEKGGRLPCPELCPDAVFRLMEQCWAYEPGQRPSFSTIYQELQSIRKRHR
Chain of Jak2 (O60674 whole entry, looked up): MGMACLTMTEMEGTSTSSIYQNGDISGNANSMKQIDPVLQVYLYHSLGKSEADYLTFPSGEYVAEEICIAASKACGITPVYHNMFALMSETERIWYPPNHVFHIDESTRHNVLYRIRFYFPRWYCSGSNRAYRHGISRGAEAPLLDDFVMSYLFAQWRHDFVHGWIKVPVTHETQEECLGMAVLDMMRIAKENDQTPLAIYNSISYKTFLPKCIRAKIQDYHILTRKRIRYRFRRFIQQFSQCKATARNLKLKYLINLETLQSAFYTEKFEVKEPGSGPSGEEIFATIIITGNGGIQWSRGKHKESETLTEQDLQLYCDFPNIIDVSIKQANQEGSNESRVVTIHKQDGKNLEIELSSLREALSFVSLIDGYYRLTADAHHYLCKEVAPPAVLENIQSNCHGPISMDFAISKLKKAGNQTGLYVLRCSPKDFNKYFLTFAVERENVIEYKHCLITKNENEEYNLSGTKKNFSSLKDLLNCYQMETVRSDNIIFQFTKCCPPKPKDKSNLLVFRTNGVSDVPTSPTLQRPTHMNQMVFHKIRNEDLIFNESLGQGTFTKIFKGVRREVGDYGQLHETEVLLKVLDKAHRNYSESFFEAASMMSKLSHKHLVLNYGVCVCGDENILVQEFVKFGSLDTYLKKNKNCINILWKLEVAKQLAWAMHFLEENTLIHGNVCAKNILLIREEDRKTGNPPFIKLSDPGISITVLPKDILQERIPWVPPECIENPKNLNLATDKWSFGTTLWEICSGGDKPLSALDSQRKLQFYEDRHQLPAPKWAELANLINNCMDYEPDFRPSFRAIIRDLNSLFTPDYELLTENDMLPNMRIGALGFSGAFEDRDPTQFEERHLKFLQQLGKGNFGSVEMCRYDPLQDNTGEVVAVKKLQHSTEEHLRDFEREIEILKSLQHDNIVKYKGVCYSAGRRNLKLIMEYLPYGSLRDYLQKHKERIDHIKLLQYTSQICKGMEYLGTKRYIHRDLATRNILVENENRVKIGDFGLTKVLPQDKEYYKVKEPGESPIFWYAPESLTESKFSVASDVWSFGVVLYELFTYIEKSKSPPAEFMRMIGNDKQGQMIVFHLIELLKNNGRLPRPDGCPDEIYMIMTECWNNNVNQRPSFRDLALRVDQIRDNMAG

Sequence | SH2 binding enrichment (c-Src SH2) | SH2 binding enrichment (Grb2 SH2) | SH2 binding enrichment (SHP2-C SH2) | phosphorylation enrichment (FGFR3) | phosphorylation enrichment (EPHB1) | phosphorylation enrichment (Fes) | phosphorylation enrichment (MERTK) | phosphorylation enrichment (FGFR1) | phosphorylation enrichment (Fyn) | phosphorylation enrichment (Jak2) | phosphorylation enrichment (Hck) | phosphorylation enrichment (AncSZ) | phosphorylation enrichment (EPHB2) | phosphorylation enrichment (c-Src) | phosphorylation enrichment (Fer (mouse)) | phosphorylation enrichment (c-Abl (mouse))
GDFSRYDEGSG [RECQL5_Y484] | 0.562 | 0.737 | 0.664 | 0.662 | 0.523 | 1.16 | 0.513 | 0.471 | 0.502 | 0.905 | 0.494 | 0.889 | 0.481 | 0.534 | 0.439 | 0.799
GEFHVYRHLRW [PRKRIP1_Y82_R87W] | 0.887 | 0.972 | 0.838 | 0.682 | 0.499 | 1.08 | 0.345 | 0.442 | 0.428 | 0.995 | 0.429 | 1 | 0.458 | 0.329 | 0.413 | 0.723
GEHSIYSTVNN [CD55_Y266_C267S] | 0.718 | 0.651 | 1.59 | 0.52 | 9.99 | 1.5 | 7.23 | 0.584 | 10.3 | 0.536 | 10.9 | 0.792 | 13 | 7.42 | 14.5 | 6.92
GEIQEYGAPLD [ABCC1_Y1508_S1512L] | 0.454 | 0.822 | 0.734 | 0.798 | 0.74 | 1.09 | 0.467 | 0.598 | 0.514 | 1.03 | 0.485 | 1.15 | 0.716 | 0.485 | 0.528 | 0.743
GEKKAYVRLAP [RPL23A_Y137] | 0.667 | 1.12 | 0.851 | 0.43 | 0.363 | 0.606 | 0.373 | 0.425 | 0.37 | 0.468 | 0.337 | 0.548 | 0.323 | 0.296 | 0.398 | 0.628
GESLTYASTTF [C1orf162_Y120] | 0.649 | 0.752 | 0.679 | 0.408 | 0.5 | 0.551 | 0.574 | 0.401 | 2.25 | 0.505 | 2.68 | 0.592 | 0.644 | 2.63 | 0.52 | 1.19
GEVKAYGAGLL [TH_Y419] | 0.393 | 0.818 | 0.457 | 0.371 | 0.309 | 0.503 | 0.342 | 0.453 | 0.363 | 0.498 | 0.404 | 0.497 | 0.459 | 0.342 | 0.319 | 0.451
GFDHSYFFIAT [ESD_Y262_YF] | 0.621 | 0.813 | 0.697 | 5.72 | 0.63 | 1.28 | 0.67 | 7.11 | 0.525 | 5.69 | 0.626 | 1.52 | 0.603 | 0.558 | 0.589 | 1.15
GFEVVYMTEPI [HSP90AB1_Y512] | 0.605 | 0.85 | 0.694 | 0.879 | 0.527 | 1.34 | 0.405 | 0.625 | 0.557 | 1.4 | 0.668 | 1.37 | 0.537 | 0.8 | 0.403 | 0.693
GFQPDYGQPAG [SYP_Y278_YF] | 0.56 | 0.836 | 0.519 | 0.483 | 0.443 | 0.686 | 0.404 | 0.478 | 0.435 | 0.554 | 0.728 | 0.583 | 0.431 | 0.294 | 0.206 | 0.509
GFSDPYVKASL [SYT3_Y470] | 0.452 | 0.796 | 0.801 | 0.4 | 0.329 | 0.722 | 0.391 | 0.444 | 0.374 | 0.646 | 0.38 | 0.568 | 0.436 | 0.393 | 0.488 | 0.544
GFVEDYRPPFY [ACVRL1_Y421_I417F] | 0.626 | 0.96 | 1.03 | 0.754 | 0.495 | 1.13 | 0.52 | 0.56 | 0.517 | 0.969 | 0.496 | 1.33 | 0.491 | 0.522 | 0.541 | 0.868
GGCQEYTGAPY [NAXD_Y85] | 0.608 | 0.935 | 0.748 | 0.843 | 0.636 | 1.06 | 0.409 | 0.627 | 0.525 | 0.83 | 0.577 | 1.35 | 0.587 | 0.52 | 0.524 | 0.699
GGDQPYSGAGD [TYRO3_Y828_R824G] | 0.596 | 0.872 | 0.64 | 0.698 | 0.501 | 0.791 | 0.408 | 0.485 | 0.453 | 0.775 | 0.474 | 0.673 | 0.481 | 0.432 | 0.436 | 0.562
GGPAGYLRRAS [PKLR_Y38] | 0.514 | 0.666 | 0.42 | 0.442 | 0.406 | 0.678 | 0.528 | 0.405 | 0.636 | 0.529 | 0.458 | 0.717 | 0.398 | 0.429 | 0.377 | 0.671
GGSTFYIDTNA [ACTL6A_Y69_P66S_YF] | 0.562 | 0.735 | 0.952 | 0.651 | 0.523 | 0.987 | 0.477 | 0.528 | 0.4 | 1.01 | 0.461 | 0.923 | 0.48 | 0.39 | 0.475 | 0.734
GIMEEYQLPFF [BMPR1A_Y453_V450M_YF] | 0.49 | 0.719 | 0.464 | 1.32 | 0.648 | 1.11 | 0.499 | 1.7 | 1.2 | 1.09 | 0.676 | 4.83 | 0.914 | 0.894 | 0.587 | 2.27

Sequence | SH2 binding enrichment (c-Src SH2) | SH2 binding enrichment (Grb2 SH2) | SH2 binding enrichment (SHP2-C SH2) | phosphorylation enrichment (FGFR3) | phosphorylation enrichment (EPHB1) | phosphorylation enrichment (Fes) | phosphorylation enrichment (MERTK) | phosphorylation enrichment (FGFR1) | phosphorylation enrichment (Fyn) | phosphorylation enrichment (Jak2) | phosphorylation enrichment (Hck) | phosphorylation enrichment (AncSZ) | phosphorylation enrichment (EPHB2) | phosphorylation enrichment (c-Src) | phosphorylation enrichment (Fer (mouse)) | phosphorylation enrichment (c-Abl (mouse))
GIVEDYRPPFY [ACVRL1_Y421] | 0.466 | 0.731 | 0.813 | 0.633 | 0.522 | 0.942 | 0.406 | 0.445 | 0.49 | 0.831 | 0.427 | 0.981 | 0.502 | 0.434 | 0.457 | 0.735
GIVEDYRPPVF [ACVRL1_Y421_F425V_YF] | 0.353 | 0.726 | 0.738 | 0.51 | 0.372 | 0.777 | 0.445 | 0.414 | 0.455 | 0.625 | 0.39 | 0.767 | 0.46 | 0.414 | 0.422 | 0.63
GIVKAYYVHAR [AIPL1_Y267_R270H] | 0.982 | 1.23 | 1.05 | 0.514 | 0.498 | 0.736 | 0.436 | 0.482 | 0.418 | 0.866 | 0.412 | 0.732 | 0.51 | 0.538 | 0.452 | 0.569
GKLIFYDLRGE [KARS1_Y145] | 0.688 | 0.947 | 0.956 | 0.584 | 0.492 | 0.984 | 0.436 | 0.517 | 0.474 | 0.823 | 0.531 | 1.02 | 0.637 | 0.413 | 0.432 | 0.664
GKMSQYLESMQ [CYB5R3_Y130] | 0.415 | 0.657 | 0.715 | 0.426 | 0.336 | 0.583 | 0.435 | 0.444 | 0.457 | 0.539 | 0.494 | 0.646 | 0.454 | 0.517 | 0.373 | 0.548
GKSDPYHATSG [GJA1_Y247] | 0.518 | 0.761 | 0.588 | 0.402 | 0.355 | 0.508 | 0.354 | 0.346 | 0.386 | 0.519 | 0.365 | 0.426 | 0.349 | 0.404 | 0.381 | 0.527
GLAKEYTDPET [CSNK1G2_Y195_I196T] | 1.1 | 0.873 | 0.671 | 0.92 | 0.494 | 1.07 | 0.473 | 0.323 | 0.634 | 1.9 | 0.579 | 1.28 | 0.736 | 0.339 | 0.398 | 0.662
GLCSFYETSKM [MAGED2_Y449_R446C_YF] | 0.797 | 0.895 | 0.689 | 0.931 | 0.71 | 1.45 | 0.706 | 0.568 | 0.652 | 1.34 | 0.794 | 1.4 | 0.903 | 0.83 | 1.95 | 0.82
GMEIVYVYVKK [DNAI2_Y5] | 0.474 | 0.688 | 0.722 | 1.1 | 0.731 | 1.23 | 0.416 | 0.967 | 0.545 | 0.964 | 0.899 | 1.24 | 0.665 | 0.632 | 0.545 | 0.813
GMSQAYSSSQR [DES_Y5] | 0.392 | 0.598 | 0.417 | 0.382 | 0.379 | 0.685 | 0.337 | 0.32 | 0.309 | 0.477 | 0.325 | 0.466 | 0.321 | 0.37 | 0.354 | 0.475
GMTLSYLFREP [NDUFS8_Y74] | 0.915 | 1.23 | 1.4 | 0.633 | 0.501 | 0.877 | 0.365 | 0.606 | 0.397 | 0.848 | 0.509 | 0.763 | 0.579 | 0.505 | 0.367 | 0.652
GNFSGYDDAWD [POLR1C_Y36_YF] | 4.46 | 0.832 | 0.592 | 0.731 | 0.574 | 1.43 | 0.48 | 0.428 | 0.454 | 1.28 | 0.461 | 1.14 | 0.568 | 0.584 | 0.479 | 1.03
GPGGDYAAMGA [ERBB3_Y1276] | 1.09 | 0.771 | 0.863 | 0.605 | 1.3 | 0.766 | 0.511 | 0.776 | 0.414 | 0.604 | 0.527 | 0.6 | 0.903 | 0.494 | 0.488 | 0.572
GPQGVYSNKLV [PTPN14_Y506] | 0.536 | 0.654 | 0.724 | 0.51 | 0.417 | 0.642 | 0.519 | 0.472 | 0.633 | 0.544 | 0.588 | 0.568 | 0.502 | 0.636 | 0.407 | 0.537
GQDLLYEDEDL [PACS1_Y303_F302L] | 0.505 | 0.8 | 0.632 | 0.889 | 0.812 | 1.43 | 0.595 | 0.559 | 0.674 | 1.18 | 0.626 | 1.6 | 0.733 | 0.613 | 2.38 | 0.855
GREFIYVDPMQ [PDGFRA_Y574_H570R_YF] | 0.524 | 1.08 | 0.596 | 4.31 | 3.28 | 0.729 | 2 | 7.2 | 0.906 | 0.703 | 1.2 | 1.03 | 5.79 | 1.36 | 0.589 | 3.31
